For data set [1], the system named is glutathione-S-transferase fusion protein of kinase-inactive ERK1 (GSTERK1K71R). Nature of the data set: Kinase activity of the modified MEK1 peptides, GSTERK1K71R substrate, [γ-32P]ATP. The class given is biochemical. The conditions noted are these: after Raf activation; 50 ng modified MEK peptide, 10 μM ATP, room temperature 20 minutes; initial experiments. The method, then:
The modified MEK peptides (50 ng) were assayed in 20 mM HEPES (N-2-hydroxyethyl-piperazine-N′-2-ethanesulfonic acid) pH 7.5, 10 mM MgCl2, […] (ethylene glycol bis(2-aminoethyl ether)-N,N,N′N′-tetraacetic acid), 10 μM ATP, with 5 μCi [γ-^32P] ATP. Appropriate samples had 0.5 units of Raf-1 (UBI) added, and the reaction started with the addition of 1 μg GSTERK1 (K71R). The reactions were incubated at room temperature for 20 minutes, then quenched with 5 μl 6×Laemmli sample buffer. The samples were then resolved by SDS-PAGE, and the phosphoproteins visualized by autoradiography. Radiolabel incorporated into ERK was quantitated by excision of the protein band from the gel and counting in a standard scintillation counter. Initial experiments with the modified MEK1 s generated the following specific activities in units of pmol PO4 min-1 mg-1 after Raf activation: WT: 8380.6, WTsPR: 40.1, C1FL: 773.3, ClsPR: 35.9, C2FL: 537.5, C2sPR: 24.1, C3FL: 441.7 and C3sPR: 26.9.

Data set [2] has as its system colon carcinomas of both mouse and human origin. Conditions: cited from earlier work.
Data set [3] concerns MAPK. The conditions noted are these: correlated with efficacy; cited from earlier work.
Data set [4] has as its target T1, glutathione-S-transferase fusion protein of kinase-inactive ERK1 (GSTERK1K71R), P27361.
T1 chain: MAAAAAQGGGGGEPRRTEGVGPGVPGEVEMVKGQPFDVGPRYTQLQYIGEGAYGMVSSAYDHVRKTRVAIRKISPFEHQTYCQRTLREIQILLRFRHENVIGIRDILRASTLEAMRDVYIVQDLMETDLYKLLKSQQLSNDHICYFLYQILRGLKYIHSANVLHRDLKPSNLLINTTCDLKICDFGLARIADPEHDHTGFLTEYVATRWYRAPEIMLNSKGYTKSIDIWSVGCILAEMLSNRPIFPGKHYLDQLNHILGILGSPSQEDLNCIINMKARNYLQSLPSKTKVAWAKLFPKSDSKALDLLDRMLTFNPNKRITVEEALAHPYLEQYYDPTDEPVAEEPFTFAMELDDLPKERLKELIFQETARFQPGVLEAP

Molecule “C2FL: NH2-terminally truncated MEK1 having peptide of amino acid residues 62 to 393 of SEQ ID NO: 2” registered a specific activities in data set [1] of 537.5 pmol PO4 min-1 mg-1.
The molecule “C3FL: NH2-terminally truncated MEK1 having peptide of amino acid residues 42 to 393 of SEQ ID NO: 2” gave a specific activities in data set [1] of 441.7 pmol PO4 min-1 mg-1.
In data set [1], “C1FL: NH2-terminally truncated MEK1 encoding amino acids 51-393 of SEQ ID NO: 2” had a specific activities of 773.3 pmol PO4 min-1 mg-1.
For the molecule `O=C(NOCC1CC1)c1ccc(F)c(F)c1Nc1ccc(I)cc1Cl` [2-(2-chloro-4-iodo-phenylamino)-N-cyclopropylmethoxy-3,4-difluoro-benzamide], in data set [2] (mice with colon carcinomas of both mouse and human origin, after treatment with inhibitor), the tumor growth inhibited was at most 80%. The toxicity result in data set [2] (wide range of doses, mice) is on record as “no signs of toxicity”. The “levels of MAPK in excised tumors” value in data set [3] is reported as “reduction in levels of MAPK”.
“WT: Wild-type human MEK1, full-length peptide of SEQ ID NO: 2, expressed in E. coli” displayed a specific activities in data set [1] of 8380.6 pmol PO4 min-1 mg-1.

B1: MEK1-C2 (d280-323) (protein)
chain: ELKDDDFEKISELGAGNGGVVFKVSHKPSGLVMARKLIHLEIKPAIRNQIIRELQVLHECNSPYIVGFYGAFYSDGEISICMEHMDGGSLDQVLKKAGRIPEQILGKVSIAVIKGLTYLREKHKIMHRDVKPSNILVNSRGEIKLCDFGVSGQLIDSMANSFVGTRSYMSPERLQGTHYSVQSDIWSMGLSLVEMAVGRYPIPPPDAKELELMFGCQVKLPSGVFSLEFQDFVNKCLIKNPAERADLKQLMVHAFIKRSDAEEVDFAGWLCSTIGLNQPSTPTHAAGV
Consider B1, for which, in data set [4], the “specific activity after Raf activation (32P incorporated into ERK)” value (from here on “specific activity after Raf activation”) is listed as “C2sPR: 24.1”. For the same molecule, the specific activities in data set [1] came out at 24.1 pmol PO4 min-1 mg-1.

B2: MEK1-C3 (d280-323) (protein)
chain: LDEQQRKRLEAFLTQKQKVGELKDDDFEKISELGAGNGGVVFKVSHKPSGLVMARKLIHLEIKPAIRNQIIRELQVLHECNSPYIVGFYGAFYSDGEISICMEHMDGGSLDQVLKKAGRIPEQILGKVSIAVIKGLTYLREKHKIMHRDVKPSNILVNSRGEIKLCDFGVSGQLIDSMANSFVGTRSYMSPERLQGTHYSVQSDIWSMGLSLVEMAVGRYPIPPPDAKELELMFGCQVKLPSGVFSLEFQDFVNKCLIKNPAERADLKQLMVHAFIKRSDAEEVDFAGWLCSTIGLNQPSTPTHAAGV
Take B2: the “specific activity after Raf activation” value in data set [4] is listed as “C3sPR: 26.9”. Moreover, in data set [1], the specific activities came to 26.9 pmol PO4 min-1 mg-1.

B3: MEK1-C1 (d280-323) (protein)
chain: EAFLTQKQKVGELKDDDFEKISELGAGNGGVVFKVSHKPSGLVMARKLIHLEIKPAIRNQIIRELQVLHECNSPYIVGFYGAFYSDGEISICMEHMDGGSLDQVLKKAGRIPEQILGKVSIAVIKGLTYLREKHKIMHRDVKPSNILVNSRGEIKLCDFGVSGQLIDSMANSFVGTRSYMSPERLQGTHYSVQSDIWSMGLSLVEMAVGRYPIPPPDAKELELMFGCQVKLPSGVFSLEFQDFVNKCLIKNPAERADLKQLMVHAFIKRSDAEEVDFAGWLCSTIGLNQPSTPTHAAGV
With B3, in data set [4], the “specific activity after Raf activation” value was “ClsPR: 35.9”. The specific activities in data set [1] is on record as 35.9 pmol PO4 min-1 mg-1.

B4: MEK1 (wt)(d280-323) (protein)
chain: MPKKKPTPIQLNPAPDGSAVNGTSSAETNLEALQKKLEELELDEQQRKRLEAFLTQKQKVGELKDDDFEKISELGAGNGGVVFKVSHKPSGLVMARKLIHLEIKPAIRNQIIRELQVLHECNSPYIVGFYGAFYSDGEISICMEHMDGGSLDQVLKKAGRIPEQILGKVSIAVIKGLTYLREKHKIMHRDVKPSNILVNSRGEIKLCDFGVSGQLIDSMANSFVGTRSYMSPERLQGTHYSVQSDIWSMGLSLVEMAVGRYPIPPPDAKELELMFGCQVKLPSGVFSLEFQDFVNKCLIKNPAERADLKQLMVHAFIKRSDAEEVDFAGWLCSTIGLNQPSTPTHAAGV
Take B4: in data set [4], the “specific activity after Raf activation” value is reported as “WTsPR: 40.1”. Also, in data set [1], the specific activities stood at 40.1 pmol PO4 min-1 mg-1.

The values above are taken from patent US20030224500A1, “Modified MEK1 and MEK2, crystal of a peptide: ligand: cofactor complex containing such modified MEK1 or MEK2, and methods of use thereof” (priority 2001, published 2003).
